# Data from IntAct's records for PubMed 20067578.
# B1: Dual specificity mitogen-activated protein kinase kinase 6 (Homo sapiens), P52564 (parent)
# chain: MSQSKGKKRNPGLKIPKEAFEQPQTSSTPPRDLDSKACISIGNQNFEVKADDLEPIMELGRGAYGVVEKMRHVPSGQIMAVKRIRATVNSQEQKRLLMDLDISMRTVDCPFTVTFYGALFREGDVWICMELMDTSLDKFYKQVIDKGQTIPEDILGKIAVSIVKALEHLHSKLSVIHRDVKPSNVLINALGQVKMCDFGISGYLVDSVAKTIDAGCKPYMAPERINPELNQKGYSVKSDIWSLGITMIELAILRFPYDSWGTPFQQLKQVVEEPSPQLPADKFSAEFVDFTSQCLKKNSKERPTYPELMQHPFFTLHESKGTDVASFVKLILGD
# Variants of: B1
# Conditions: with lrrk2_human LRRK2, Q5S007
# Sequence of lrrk2_human LRRK2, Q5S007 (Q5S007 whole entry): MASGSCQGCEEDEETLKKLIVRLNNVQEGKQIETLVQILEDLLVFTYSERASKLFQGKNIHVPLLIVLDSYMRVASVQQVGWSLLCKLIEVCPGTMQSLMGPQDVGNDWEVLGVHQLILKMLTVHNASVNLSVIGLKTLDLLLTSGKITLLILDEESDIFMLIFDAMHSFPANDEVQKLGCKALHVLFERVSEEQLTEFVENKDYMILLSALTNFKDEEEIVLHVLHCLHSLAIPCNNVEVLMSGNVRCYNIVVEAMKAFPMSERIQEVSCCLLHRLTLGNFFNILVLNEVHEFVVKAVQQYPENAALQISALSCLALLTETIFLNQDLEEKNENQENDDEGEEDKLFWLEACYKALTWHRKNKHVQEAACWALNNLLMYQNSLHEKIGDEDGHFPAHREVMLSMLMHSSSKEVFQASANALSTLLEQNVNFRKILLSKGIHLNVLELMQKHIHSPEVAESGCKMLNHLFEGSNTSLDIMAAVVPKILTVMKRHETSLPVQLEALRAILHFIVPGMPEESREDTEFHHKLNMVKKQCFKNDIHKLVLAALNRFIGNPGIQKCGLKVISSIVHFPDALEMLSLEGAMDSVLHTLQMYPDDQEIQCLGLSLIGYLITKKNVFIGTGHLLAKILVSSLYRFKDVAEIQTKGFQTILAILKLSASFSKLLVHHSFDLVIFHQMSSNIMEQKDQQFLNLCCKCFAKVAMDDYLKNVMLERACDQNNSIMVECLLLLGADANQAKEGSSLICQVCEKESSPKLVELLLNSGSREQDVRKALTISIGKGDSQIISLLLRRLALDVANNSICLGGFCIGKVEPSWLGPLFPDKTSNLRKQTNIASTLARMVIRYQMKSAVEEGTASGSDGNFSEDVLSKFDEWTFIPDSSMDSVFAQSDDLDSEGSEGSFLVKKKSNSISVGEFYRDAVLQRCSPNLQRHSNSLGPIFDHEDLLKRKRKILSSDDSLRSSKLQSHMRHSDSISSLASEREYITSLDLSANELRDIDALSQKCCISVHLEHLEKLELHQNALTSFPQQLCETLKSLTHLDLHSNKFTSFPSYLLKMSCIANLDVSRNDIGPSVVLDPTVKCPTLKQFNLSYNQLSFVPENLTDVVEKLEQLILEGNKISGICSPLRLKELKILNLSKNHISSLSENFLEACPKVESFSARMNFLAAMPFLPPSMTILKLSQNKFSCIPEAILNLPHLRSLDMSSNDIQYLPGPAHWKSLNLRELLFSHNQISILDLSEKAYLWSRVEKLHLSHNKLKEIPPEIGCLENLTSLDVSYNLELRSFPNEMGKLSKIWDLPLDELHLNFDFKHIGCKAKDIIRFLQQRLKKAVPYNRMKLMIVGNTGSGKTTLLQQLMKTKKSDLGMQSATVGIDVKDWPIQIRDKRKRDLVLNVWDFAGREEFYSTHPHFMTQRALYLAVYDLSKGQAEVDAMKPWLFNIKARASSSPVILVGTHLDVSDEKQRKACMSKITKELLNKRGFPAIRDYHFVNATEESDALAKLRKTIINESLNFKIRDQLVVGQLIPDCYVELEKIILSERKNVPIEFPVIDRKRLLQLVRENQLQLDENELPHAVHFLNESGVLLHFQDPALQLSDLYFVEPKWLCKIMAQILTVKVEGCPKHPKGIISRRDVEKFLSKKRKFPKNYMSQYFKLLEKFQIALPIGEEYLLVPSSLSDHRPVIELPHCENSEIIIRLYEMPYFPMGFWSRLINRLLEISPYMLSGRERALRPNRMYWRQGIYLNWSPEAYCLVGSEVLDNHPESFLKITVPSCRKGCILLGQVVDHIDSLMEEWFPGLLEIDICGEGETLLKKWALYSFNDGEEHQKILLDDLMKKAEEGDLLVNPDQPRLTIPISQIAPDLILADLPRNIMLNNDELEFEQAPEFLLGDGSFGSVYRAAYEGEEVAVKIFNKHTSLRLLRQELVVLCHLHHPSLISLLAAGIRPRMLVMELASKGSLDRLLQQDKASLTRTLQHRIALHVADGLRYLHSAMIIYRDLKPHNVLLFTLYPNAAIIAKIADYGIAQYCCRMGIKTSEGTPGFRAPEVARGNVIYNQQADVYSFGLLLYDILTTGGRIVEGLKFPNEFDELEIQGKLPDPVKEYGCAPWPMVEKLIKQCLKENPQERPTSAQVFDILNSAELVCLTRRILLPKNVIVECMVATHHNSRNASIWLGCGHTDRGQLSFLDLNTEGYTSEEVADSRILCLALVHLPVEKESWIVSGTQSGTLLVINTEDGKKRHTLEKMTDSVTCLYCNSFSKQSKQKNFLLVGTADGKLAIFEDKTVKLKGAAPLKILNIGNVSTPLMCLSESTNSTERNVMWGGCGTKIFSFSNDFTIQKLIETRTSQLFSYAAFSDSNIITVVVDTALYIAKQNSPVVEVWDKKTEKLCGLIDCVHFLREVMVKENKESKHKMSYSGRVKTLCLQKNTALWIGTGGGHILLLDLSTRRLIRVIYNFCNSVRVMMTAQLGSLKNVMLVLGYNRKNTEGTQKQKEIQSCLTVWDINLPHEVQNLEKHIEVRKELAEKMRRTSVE
row,effect of a mutation on the interaction,Variant
1,decreasing interaction,MSQSKGKKRNPGLKIPKEAFEQPQTSSTPPRDLDSKACISIGNQNFEVKADDLEPIMELGRGAYGVVEKMRHVPSGQIMAVARIRATVNSQEQKRLLMDLDISMRTVDCPFTVTFYGALFREGDVWICMELMDTSLDKFYKQVIDKGQTIPEDILGKIAVSIVKALEHLHSKLSVIHRDVKPSNVLINALGQVKMCDFGISGYLVDSVAKTIDAGCKPYMAPERINPELNQKGYSVKSDIWSLGITMIELAILRFPYDSWGTPFQQLKQVVEEPSPQLPADKFSAEFVDFTSQCLKKNSKERPTYPELMQHPFFTLHESKGTDVASFVKLILGD [K82A]
